The source of these data is PMC9039656.

The data set deals with T1, PAP1 R2R3-MYB domain (UniProt Q9FE25 1-178).
T1 sequence: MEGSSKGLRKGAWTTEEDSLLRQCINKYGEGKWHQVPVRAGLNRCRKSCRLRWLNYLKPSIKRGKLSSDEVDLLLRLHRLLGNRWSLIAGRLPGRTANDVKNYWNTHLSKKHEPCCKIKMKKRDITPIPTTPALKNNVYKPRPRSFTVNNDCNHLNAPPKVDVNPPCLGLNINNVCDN
Put plainly: EMSA.

B1: NtPMT2 MRE-like probe (dsDNA)
DNA 1: CCAACAACCGCGCCAACAACCGCGCCAACAACCGCG
DNA 2: CGCGGTTGTTGGCGCGGTTGTTGGCGCGGTTGTTGG
With B1, the binding result is recorded as “no binding”.
